In the supplement of paper PMC7877785:
± gives the uncertainty stated by the source.

Test: self-splicing fitness, log relative to wild type (ln ratio); higher = more splicing; Tetrahymena group I intron in knt gene, E. coli kanamycin selection, DiMSum; sequences stand for … in CUCUCU…GGAGGGAAAAGUUAUCAGGCAUGCACCUGGUAGCUAGUCUUUAAACCAAUAGAUUGCAUCGGUUUAAAAGGCAAGACCGUCAAAUUGCGGGAAAGGGGUCAACAGCCGUUCAGUACCAAGUCUCAGGGGAAACUUUGAGAUGGCCUUGCAAAGGGUAUGGUAAUAAGCUGACGGACAUGGUCCUAACCACGCAGCCAAGUCCUAAGUCAACAGAUCUUCUGUUGAUAUGGAUGCAGUUCACAGACUAAAUGUCGGUCGGGGAAGAUGUAUUCUUCUCAUAAGAUAUAGUCGGACCUCUCCUUAAUGGGAGCUAGCGGAUGAAGUGAUGCAACACUGGAGCCGCUGGGAACUAAUUUGUAUGCGAAAGUAUAUUGAUUAGUUUUGGAGUACUCGUGGUCG
How it was run: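 Six replicate transformations of E. coli BL21(DE3) with a pET-22b(+) library were grown overnight at 37°C or 30°C. The library randomised all eight P1ex-region intron nucleotides, the intron lying in the knt kanamycin-resistance gene, and plates were LB agar with or without 25 μg/mL kanamycin plus 100 μg/mL carbenicillin, 50 μM IPTG and 0.2% rhamnose. Pooled colonies were amplicon-sequenced on an Illumina HiSeq 2500, and fitness is the DiMSum error-weighted combination of wild-type-normalised replicate fold changes, kanamycin versus none.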

Sequence	self-splicing fitness (ln) (30 °C)	self-splicing fitness (ln) (37 °C)
GUAGAGCAAUAUUACGAUUG	-2.82 ± 0.16	-2.4 ± 0.2
GUAGAGCAAUAUUACGCCUA	-1.39 ± 0.26	-1.18 ± 0.24
GUAGAGCAAUAUUACGCUGA	-2.33 ± 0.11	-1.15 ± 0.14
GUAGAGCAAUAUUACGGAAU	-2.36 ± 0.084	-1.18 ± 0.096
GUAGAGCAAUAUUACGGCCA	-0.643 ± 0.098	-0.417 ± 0.17
GUAGAGCAAUAUUACGGCUU	-0.97 ± 0.075	-0.03 ± 0.12
GUAGAGCAAUAUUACGGGAG	-3.15 ± 0.47	-1.85 ± 0.38
GUAGAGCAAUAUUACGGGGA	-3.54 ± 0.25	-1.16 ± 0.29
GUAGAGCAAUAUUACGGGUC	-2.19 ± 0.12	-1.37 ± 0.12
GUAGAGCAAUAUUACGUAUC	-2.44 ± 0.12	-1.58 ± 0.13
GUAGAGCAAUAUUACGUCGA	-3.08 ± 0.17	-0.919 ± 0.2
GUAGAGCAAUAUUACGUGGU	-3.09 ± 0.28	-3.52 ± 0.3
GUAGAGCAAUAUUACGUGUA	-2.77 ± 0.2	-2.53 ± 0.28
GUAGAGCAAUAUUACGUUAC	-2.63 ± 0.18	-0.785 ± 0.14
GUAGAGCAAUAUUACGUUCC	-1.77 ± 0.14	-0.881 ± 0.18
GUAGAGCAAUAUUACGUUUU	-2.47 ± 0.16	-1.36 ± 0.18
GUAUAGCAAUAUUACGACCG	-2.97 ± 0.35	-0.999 ± 0.26
GUAUAGCAAUAUUACGACGG	-4.18 ± 0.37	-2.33 ± 0.35
GUAUAGCAAUAUUACGAGCU	-2.42 ± 0.27	-1.61 ± 0.3
GUAUAGCAAUAUUACGAUAU	-2.87 ± 0.32	-0.832 ± 0.36
GUAUAGCAAUAUUACGAUCC	-0.716 ± 0.18	1.03 ± 0.22
GUAUAGCAAUAUUACGAUUA	-1.14 ± 0.16	-1.4 ± 0.15
GUAUAGCAAUAUUACGCAAG	-3.76 ± 0.4	-1.64 ± 0.25
GUAUAGCAAUAUUACGCAUA	-2.3 ± 0.28	-0.525 ± 0.27
GUAUAGCAAUAUUACGCCUC	-1.32 ± 0.21	-0.746 ± 0.27
GUAUAGCAAUAUUACGCGUA	-2.69 ± 0.29	-1.41 ± 0.22

Sequence	self-splicing fitness (ln) (30 °C)	self-splicing fitness (ln) (37 °C)
GUAUAGCAAUAUUACGCUAG	-2.46 ± 0.43	-0.609 ± 0.3
GUAUAGCAAUAUUACGCUUG	-1.72 ± 0.16	-1.41 ± 0.26
GUAUAGCAAUAUUACGCUUU	-3.51 ± 0.24	-2.28 ± 0.17
GUAUAGCAAUAUUACGGAAU	-2.27 ± 0.23	-2.39 ± 0.21
GUAUAGCAAUAUUACGGAUC	-0.654 ± 0.14	-0.016 ± 0.17
GUAUAGCAAUAUUACGGCUA	-0.758 ± 0.13	-0.383 ± 0.11
GUAUAGCAAUAUUACGGGAC	-2.88 ± 0.34	-1.07 ± 0.2
GUAUAGCAAUAUUACGGGUC	-1.89 ± 0.2	-1.62 ± 0.39
GUAUAGCAAUAUUACGGUGG	-2.54 ± 0.1	-2.63 ± 0.17
GUAUAGCAAUAUUACGUAAA	-2.75 ± 0.31	-1.66 ± 0.31
GUAUAGCAAUAUUACGUAUU	-4.14 ± 0.37	-1.44 ± 0.2
GUAUAGCAAUAUUACGUCUU	-1.64 ± 0.14	0.0317 ± 0.13
GUAUAGCAAUAUUACGUGCA	-0.903 ± 0.19	-0.516 ± 0.18
GUAUAGCAAUAUUACGUGGG	-3.28 ± 0.16	-1.88 ± 0.14
GUCAAGCAAUAUUACGAAAC	-1.37 ± 0.27	0.108 ± 0.3
GUCAAGCAAUAUUACGAAGA	-3.88 ± 0.28	–
GUCAAGCAAUAUUACGACUG	-4.59 ± 0.27	-4.75 ± 0.45
GUCAAGCAAUAUUACGAGAU	-5.3 ± 0.38	-3.28 ± 0.2
GUCAAGCAAUAUUACGAGCC	-4.32 ± 0.25	-2.26 ± 0.26
GUCAAGCAAUAUUACGAUCU	-2.31 ± 0.067	-1.04 ± 0.068
GUCAAGCAAUAUUACGAUUG	–	-3.59 ± 0.34
GUCAAGCAAUAUUACGCAAU	-2 ± 0.061	-1.32 ± 0.076
GUCAAGCAAUAUUACGCACA	-1.21 ± 0.12	-0.776 ± 0.13
GUCAAGCAAUAUUACGCCGA	-3.33 ± 0.45	-1.08 ± 0.18
GUCAAGCAAUAUUACGCGGU	-3.16 ± 0.39	-1.82 ± 0.31
GUCAAGCAAUAUUACGGAUG	-2.64 ± 0.12	-0.795 ± 0.11

Sequence	self-splicing fitness (ln) (30 °C)	self-splicing fitness (ln) (37 °C)
GUCAAGCAAUAUUACGGGGC	-5.02 ± 0.45	-3.14 ± 0.27
GUCAAGCAAUAUUACGGUAA	-1.28 ± 0.18	-0.000783 ± 0.17
GUCAAGCAAUAUUACGGUGC	-2.35 ± 0.12	-1.72 ± 0.18
GUCAAGCAAUAUUACGUAGA	-2.04 ± 0.1	-1.17 ± 0.12
GUCAAGCAAUAUUACGUAGC	-1.55 ± 0.12	-1.07 ± 0.15
GUCAAGCAAUAUUACGUCGC	-3.74 ± 0.21	-2.13 ± 0.19
GUCAAGCAAUAUUACGUCGG	–	-1.88 ± 0.18
GUCAAGCAAUAUUACGUGGA	-2.86 ± 0.17	-1.58 ± 0.12
GUCAAGCAAUAUUACGUGUA	-1.8 ± 0.062	-0.887 ± 0.072
GUCAAGCAAUAUUACGUUUA	-1.92 ± 0.096	-0.845 ± 0.091
GUCAAGCAAUAUUACGUUUG	–	-3.38 ± 0.2
GUCCAGCAAUAUUACGAACA	-1.83 ± 0.15	-0.801 ± 0.12
GUCCAGCAAUAUUACGAAGC	-0.345 ± 0.072	-0.167 ± 0.085
GUCCAGCAAUAUUACGAAGG	-1.34 ± 0.24	-1.66 ± 0.28
GUCCAGCAAUAUUACGAAUG	-2.65 ± 0.17	-1.31 ± 0.15
GUCCAGCAAUAUUACGACCC	-0.218 ± 0.18	0.168 ± 0.21
GUCCAGCAAUAUUACGAUUU	-0.323 ± 0.064	0.653 ± 0.067
GUCCAGCAAUAUUACGCACG	-2.07 ± 0.21	-0.825 ± 0.13
GUCCAGCAAUAUUACGCGCA	-0.0872 ± 0.1	0.23 ± 0.11
GUCCAGCAAUAUUACGCGGA	-3.96 ± 0.25	-4.4 ± 0.46
GUCCAGCAAUAUUACGGCCA	-0.678 ± 0.13	-0.279 ± 0.14
GUCCAGCAAUAUUACGGUUU	-0.181 ± 0.052	0.389 ± 0.064
GUCCAGCAAUAUUACGUAAA	-0.484 ± 0.081	0.338 ± 0.12
GUCCAGCAAUAUUACGUAGA	-0.646 ± 0.064	-0.201 ± 0.086
GUCCAGCAAUAUUACGUAGC	-0.399 ± 0.062	-0.149 ± 0.075
